The subject of this series is MS2 coat protein. The experiment in a line: apparent KD of MS2 coat protein; designed switch direction (-1 OFF switch, 1 ON switch): 1; higher = weaker reporter binding. The essentials:
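The reported apparent KD is a per-design median over clusters, from curve fits of normalised cluster fluorescence. Protein titrations used SNAP-549-labelled MS2 coat protein, doubled from 0.7 or 1.5 nM to 3 µM, in Tris-HCl pH 7.5 buffer with KCl, MgCl2, BSA, DTT, tRNA and Tween-20, with no input, 200 uM small-molecule ligand, or an oligonucleotide input. The RNA switches were transcribed on Illumina chips by stalled E. coli RNA polymerase.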

The mark [1] stands for this setting: input ligand: microRNA oligo, concentration not stated.
The mark [2] stands for this setting: Eterna round: R95, input ligand: microRNA oligo, concentration not stated.
Where [3] appears, read: Eterna round: R95, input ligand: FMN 200 uM.
Setting [4] is: Eterna round: R95, input ligand: none.

For the sequence “CUUAACAGAGGAGGAUAUGCAGAGGAUCACCCUGUAGAAGGCCACAGAGGAGGAUAUGCAGAGGAUCACCCUGUAGAAGGCCAC [pwkr ssNG DX.8] (Eterna round: R96, puzzle: Same State NG 1)”, the “apparent KD of MS2 coat protein” value by setting is: (input ligand: FMN 200 uM) 622 nM; under setting [1], 143 nM; (input ligand: none) 280 nM.
In the same order, the values of “CUUCGGAAGCGAGGAUAUGCAGAGGAUCACCCUGCAGAAGGCGCAAAAGCGAGGAUAUGCAGAGGAUCACCCUGCAGAAGGCGC [pwkr ssNG DX.34] (Eterna round: R96, puzzle: Same State NG 1)” are 43 nM, 15.7 nM and 32.4 nM.
Take “CUUGGGUGGCUGGAGGAUAUUCGAGUGGUAACAUGAGGAUCACCCAUGUGUCGCGCGGUACACGAGGAGAAGGCUGGCGGCCGGC (puzzle: Same State 2)”: the “apparent KD of MS2 coat protein” value under setting [2] was found to be 84.8 nM.
“CUUUUUAAUGCAGGAUAUGAUCAACAUGAGGAUCACCCAUGUGGCGUUGUGAGUAGGGAGAGUGAUCAGAAGGGCAUCUCCUCG [SS-NG2-LRO08] (Eterna round: R96, puzzle: Same State NG 2)”: the “apparent KD of MS2 coat protein” value (input ligand: FMN 200 uM) turned out to be 68 nM, the “apparent KD of MS2 coat protein” value under setting [1] stood at 45.1 nM and the “apparent KD of MS2 coat protein” value (input ligand: none) is 62.4 nM.
Take “GAAAAACAUGAGGAUCACCCAUGUGAGAAUAUGGGAGGAUAUACGAGGACGAGAGUCAAGGUAGAAGGCCUAAAAG [Garnet 75] (Eterna round: R96, puzzle: Same State 1)”: the “apparent KD of MS2 coat protein” value was 45.3 nM (input ligand: FMN 200 uM), 255 nM under setting [1] and 314 nM (input ligand: none).
As for “GAAAAGGCGACGCAGGAUAUGAAAGGUGAAACAUGAGGAUCACCCAUGUGCUACCUUCCGAUAAAUCAGAAGGGCGACGCCAAGC [Soleusat] (puzzle: Same State 2)”, the “apparent KD of MS2 coat protein” value under setting [3] turned out to be 9.79 nM, the “apparent KD of MS2 coat protein” value under setting [2] came out at 8.54 nM and the “apparent KD of MS2 coat protein” value under setting [4] came to 9.6 nM.
In the same order, the values of “GAAAGAGGAAGCGAGGAUAUCGUGUUGAGUACAUGAGGAUCACCCAUGUUGUAGGUAGAGGUAGGCGAGAAGGCGCAGGAGAAGA [JR_SS2_Sub0101] (puzzle: Same State 2)” are 60 nM, 40.6 nM and 55.4 nM.
For “GAAGACAUAGUUCAGGAUAUAGGAAUAGUCACAUGAGGAUCACCCAUGUGCAUUUAUAUGCGCACUUAGAAGGGAGGUAGUUAUC [SameState2 Malc#23] (Eterna round: R96, puzzle: Same State 2)”, the “apparent KD of MS2 coat protein” value reads like this: (input ligand: FMN 200 uM) 39.4 nM; under setting [1], 29.4 nM; (input ligand: none) 39.4 nM.
Consider “GAAGCGGCAGAAUAAAACAUGAGGAUCACCCAUGUCGCGGUUUAGGAUAUGGGACGGGUAUGAACCCAGAAGGAGACCGCAGGC [Eternabot solution 2] (Eterna round: R96, puzzle: Same State NG 3)”, for which the “apparent KD of MS2 coat protein” value by setting is: (input ligand: FMN 200 uM) 32.7 nM; under setting [1], 33.8 nM; (input ligand: none) 56.2 nM.
As to “GAAGGAUGAGCGUAGGAUAUAGGAGGAGUGACAUGAGGAUCACCCAUGUAGUAAGAGGGAGGGUACUAGAAGGACGAGGAAGAAG [JR_SS2_Sub066] (puzzle: Same State 2)”, the “apparent KD of MS2 coat protein” value runs as follows: under setting [3], 602 nM; under setting [2], 6 nM; under setting [4], 16.3 nM.
Take “GAAGGAUGAGCGUAGGAUAUAGGAGGAGUGACAUGAGGAUCACCCAUGUGGUAUGAGGGAGGAUUCUAGAAGGACGCGGUAGAAG [JR_SS2_Sub065] (puzzle: Same State 2)”: the “apparent KD of MS2 coat protein” value runs as follows: under setting [3], 89.9 nM; under setting [2], 150 nM; under setting [4], 161 nM.
For the sequence “GACCGCGAGGAAGGAUAUCGAGCCUUAUUGGCUCGAGAAGGUCCAUAAAGGACAUGAGGAUCACCCAUGUGGUGAGAAGCGGUC [Mat - Same State NG 1 - JL mod - D76] (Eterna round: R96, puzzle: Same State NG 1)”, the “apparent KD of MS2 coat protein” value was found to be 187 nM (input ligand: FMN 200 uM), 1430 nM under setting [1] and 1160 nM (input ligand: none).
The matching figures for “GACGAGGUGGGAGGAUAUAGCCCGUGGACUGUACCCGAACAUGAGGAUCACCCAUGUCGAGAAACCUAGAAGGCCUACAACGUA [Eternabot solution 11] (Eterna round: R96, puzzle: Same State NG 2)”: 16.8 nM, 10.8 nM and 38.4 nM.
For “GAGAGAGGAAGCGAGGAUAUCGUGUUGAGUACAUGAGGAUCACCCAUGUUGUAGGUAGAGGUAGGCGAGAAGGCGCAGGAGAAGA [JR_SS2_Sub0100] (puzzle: Same State 2)”, the “apparent KD of MS2 coat protein” value is 50.2 nM under setting [3], 39.3 nM under setting [2] and 41 nM under setting [4].
The matching figures for “GAGAGAGGAAGCGAGGAUAUCGUGUUGAGUACAUGAGGAUCACCCAUGUUGUAGGUAGAGGUAGGCGAGAAGGCGCAGGAGAGGG [JR_SS2_Sub099] (puzzle: Same State 2)”: 43 nM, 43.2 nM and 51 nM.
For “GAGAGAGGGUGAGGAUAUGCAGUAAUAAUGAUAGCAGAAGGCACAGACAUGAGGAUCACCCAUGUGGGAAUAAUCCAGAGAGAG [Parity 2 - Jieux - Same State NG 1] (Eterna round: R96, puzzle: Same State NG 1)”, the “apparent KD of MS2 coat protein” value amounted to 291 nM (input ligand: FMN 200 uM), 177 nM under setting [1] and 305 nM (input ligand: none).
The matching figures for “GAGAGAUGGCGAGGAUAUUCGGUGAUAAUGAUAGAAGAAGGCGCUGACAUGAGGAUCACCCAUGUGGGAAUAAUCCAGAGAGAG [Parity 18 - Jieux - Same State NG 1] (Eterna round: R96, puzzle: Same State NG 1)”: 283 nM, 73.8 nM and 226 nM.
In the same order, the values of “GAGCCAGUCCGAGGAUAUUCAUAUUAAACAUGAGGAUCACCCAUGUAGGCUCAGAAAGAGCCUUGGGAGAAGGCGGACUGGCUC [Xeonanisa<<1] (Eterna round: R96, puzzle: Same State NG 2)” are 16.7 nM, 182 nM and 201 nM.
In the same order, the values of “GAGGAACAGGCCAACAUGAGGAUCACCCAUGUCCUCGCACUUCAGGAUAUCUGGAGGAAGAAGAAAGAGAAGGGAAGGUGAAGC [AK SSNG3-V2-34.2] (Eterna round: R96, puzzle: Same State NG 3)” are 202 nM, 30.1 nM and 19.3 nM.
As for “GAGGAGGAUACAGGAUAUAUACAUGAGGAUCACACAUACAUGACAUGAGGAUCACCCAUGUUUGUAUAGAAGGGUAAGAGGAGG [Seems to be working] (Eterna round: R96, puzzle: Same State NG 2)”, the “apparent KD of MS2 coat protein” value (input ligand: FMN 200 uM) came to 51.2 nM, the “apparent KD of MS2 coat protein” value under setting [1] was 24.2 nM and the “apparent KD of MS2 coat protein” value (input ligand: none) is 66.1 nM.
In the case of “GAGGAUGAUUUACAGGAUAUAUAGAAGAUGACAUGAGGAUCACCCAUGUAAGAGAAAGGAGGGAGAUAGAAGGGUAAGGGAUGUG [JR_SS2_Sub40] (puzzle: Same State 2)”, the “apparent KD of MS2 coat protein” value was determined as 37.2 nM under setting [3], 24.5 nM under setting [2] and 42.3 nM under setting [4].
“GAGGCACAUGAGGAUCACCCAUGUGGGUAUAACAUAGGAUAUCACCAACAAAAUACCCGGUGAGAAGGAUGAUGCC [Ravevele] (puzzle: Same State 1)”: the “apparent KD of MS2 coat protein” value under setting [2] was 158 nM.
On to “GAGGGACAGACCAACAUGAGGAUCACCCAUGUCCUCGCAGGUCAGGAUAUCCCGCCAACAGGCGAGGAGAAGGGACGGUGAACC (Eterna round: R96, puzzle: Same State NG 3)”, for which the “apparent KD of MS2 coat protein” value stood at 610 nM (input ligand: FMN 200 uM), 672 nM under setting [1] and 713 nM (input ligand: none).
For “GAGGGAUGAGCGUAGGAUAUAGGAGAAGUGACAUGAGGAUCACCCAUGUAGGAGGAGGGAUGAGACUAGAAGGACGAGGUAGGAG [JR_SS2_Sub061] (puzzle: Same State 2)”, the “apparent KD of MS2 coat protein” value by setting is: under setting [3], 37.5 nM; under setting [2], 54.7 nM; under setting [4], 67.9 nM.
For the sequence “GAGGGCGAAAGCAACAUGAGGAUCACCCAUGUCCUCGGAGGGCAGGAUAUCCGGCGGUAGCCGAAGGAGAAGGGUCGGUAAGAA [AK SSNG3-V2-33.1] (Eterna round: R96, puzzle: Same State NG 3)”, the “apparent KD of MS2 coat protein” value runs as follows: (input ligand: FMN 200 uM) 159 nM; under setting [1], 107 nM; (input ligand: none) 584 nM.
On to “GAGUGAUGGGUUAGUAACUGCUAGGAAGGACAUGAGGAUCACCCAUGUGAGUAACGAGCUUGUGCUCGUCUUAUAAG [JR_SHM208A_Sub021] (puzzle: Sensor for hsa-mir-208a)”, for which the “apparent KD of MS2 coat protein” value reads like this: under setting [3], 167 nM; under setting [2], 89.4 nM; under setting [4], 325 nM.
With “GAGUGGAGGAAAGGAUAUACAAUGAUAAUCACAGUAGAAGGUUCUAACAUGAGGAUCACCCAUGUAGGACUAUACCAGAGAGGG [Parity 46 - Jieux - Same State NG 1] (Eterna round: R96, puzzle: Same State NG 1)”, the “apparent KD of MS2 coat protein” value under setting [1] amounted to 11.4 nM.
On to “GAGUGGCAGUAAGGAUAUAUAGUGAUAAUCACAGUAGAAGGUACUGACAUGAGGAUCACCCAUGUAGGACUAAUCCAGAGAGAG [Parity 42 - Jieux - Same State NG 1] (Eterna round: R96, puzzle: Same State NG 1)”, for which the “apparent KD of MS2 coat protein” value reads like this: (input ligand: FMN 200 uM) 73.6 nM; under setting [1], 26.4 nM; (input ligand: none) 37.5 nM.

Source of the values: the supplement of paper PMC9170038.
